From PMC8096781 come the findings set out here.

A word on the stoichiometry N: it is a count of units in the complex or per binding partner.

The target of this assay is endogenous PKM2 (HeLa cells) (human (endogenous in HeLa)) (UniProt P14618). Kind of assay: SEC; gel chromatography (Superdex 200, cold PBS, 4 °C, 0.3 mL/min) of extracts of HeLa cells with vector, FOXM1A or FOXM1D; fractions analysed by western blot.

Sequence of endogenous PKM2 (HeLa cells), P14618 1-531 (enzyme; other documents disagree on this pair) (P14618 whole entry): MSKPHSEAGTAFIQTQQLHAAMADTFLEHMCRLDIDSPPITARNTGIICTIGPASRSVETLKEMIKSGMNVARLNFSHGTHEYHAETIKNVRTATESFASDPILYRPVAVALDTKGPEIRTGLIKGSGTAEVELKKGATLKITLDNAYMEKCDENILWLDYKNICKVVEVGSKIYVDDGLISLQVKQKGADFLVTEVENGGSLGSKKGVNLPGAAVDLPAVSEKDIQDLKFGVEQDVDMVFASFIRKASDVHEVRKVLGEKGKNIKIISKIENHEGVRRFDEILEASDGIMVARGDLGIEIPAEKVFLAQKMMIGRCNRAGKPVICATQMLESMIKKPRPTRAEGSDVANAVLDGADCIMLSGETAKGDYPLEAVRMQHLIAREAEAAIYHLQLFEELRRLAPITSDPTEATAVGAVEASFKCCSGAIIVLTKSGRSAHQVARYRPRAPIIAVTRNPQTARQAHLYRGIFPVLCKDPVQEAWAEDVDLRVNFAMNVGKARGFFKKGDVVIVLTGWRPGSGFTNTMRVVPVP

In turn, “endogenous PKM2 (HeLa cells), P14618 1-531 (enzyme; other documents disagree on this pair)” returned a stoichiometry N of 2.
